Test results: IntAct's records for PubMed 29892012

B1: Histone-lysine N-methyltransferase SETD5 (Homo sapiens), Q9C0A6 (parent)
chain: MSIAIPLGVTTSDTSYSDMAAGSDPESVEASPAVNEKSVYSTHNYGTTQRHGCRGLPYATIIPRSDLNGLPSPVEERCGDSPNSEGETVPTWCPCGLSQDGFLLNCDKCRGMSRGKVIRLHRRKQDNISGGDSSATESWDEELSPSTVLYTATQHTPTSITLTVRRTKPKKRKKSPEKGRAAPKTKKIKNSPSEAQNLDENTTEGWENRIRLWTDQYEEAFTNQYSADVQNALEQHLHSSKEFVGKPTILDTINKTELACNNTVIGSQMQLQLGRVTRVQKHRKILRAARDLALDTLIIEYRGKVMLRQQFEVNGHFFKKPYPFVLFYSKFNGVEMCVDARTFGNDARFIRRSCTPNAEVRHMIADGMIHLCIYAVSAITKDAEVTIAFDYEYSNCNYKVDCACHKGNRNCPIQKRNPNATELPLLPPPPSLPTIGAETRRRKARRKELEMEQQNEASEENNDQQSQEVPEKVTVSSDHEEVDNPEEKPEEEKEEVIDDQENLAHSRRTREDRKVEAIMHAFENLEKRKKRRDQPLEQSNSDVEITTTTSETPVGEETKTEAPESEVSNSVSNVTIPSTPQSVGVNTRRSSQAGDIAAEKLVPKPPPAKPSRPRPKSRISRYRTSSAQRLKRQKQANAQQAELSQAALEEGGSNSLVTPTEAGSLDSSGENRPLTGSDPTVVSITGSHVNRAASKYPKTKKYLVTEWLNDKAEKQECPVECPLRITTDPTVLATTLNMLPGLIHSPLICTTPKHYIRFGSPFIPERRRRPLLPDGTFSSCKKRWIKQALEEGMTQTSSVPQETRTQHLYQSNENSSSSSICKDNADLLSPLKKWKSRYLMEQNVTKLLRPLSPVTPPPPNSGSKSPQLATPGSSHPGEEECRNGYSLMFSPVTSLTTASRCNTPLQFELCHRKDLDLAKVGYLDSNTNSCADRPSLLNSGHSDLAPHPSLGPTSETGFPSRSGDGHQTLVRNSDQAFRTEFNLMYAYSPLNAMPRADGLYRGSPLVGDRKPLHLDGGYCSPAEGFSSRYEHGLMKDLSRGSLSPGGERACEGVPSAPQNPPQRKKVSLLEYRKRKQEAKENSAGGGGDSAQSKSKSAGAGQGSSNSVSDTGAHGVQGSSARTPSSPHKKFSPSHSSMSHLEAVSPSDSRGTSSSHCRPQENISSRWMVPTSVERLREGGSIPKVLRSSVRVAQKGEPSPTWESNITEKDSDPADGEGPETLSSALSKGATVYSPSRYSYQLLQCDSPRTESQSLLQQSSSPFRGHPTQSPGYSYRTTALRPGNPPSHGSSESSLSSTSYSSPAHPVSTDSLAPFTGTPGYFSSQPHSGNSTGSNLPRRSCPSSAASPTLQGPSDSPTSDSVSQSSTGTLSSTSFPQNSRSSLPSDLRTISLPSAGQSAVYQASRVSAVSNSQHYPHRGSGGVHQYRLQPLQGSGVKTQTGLS
partner: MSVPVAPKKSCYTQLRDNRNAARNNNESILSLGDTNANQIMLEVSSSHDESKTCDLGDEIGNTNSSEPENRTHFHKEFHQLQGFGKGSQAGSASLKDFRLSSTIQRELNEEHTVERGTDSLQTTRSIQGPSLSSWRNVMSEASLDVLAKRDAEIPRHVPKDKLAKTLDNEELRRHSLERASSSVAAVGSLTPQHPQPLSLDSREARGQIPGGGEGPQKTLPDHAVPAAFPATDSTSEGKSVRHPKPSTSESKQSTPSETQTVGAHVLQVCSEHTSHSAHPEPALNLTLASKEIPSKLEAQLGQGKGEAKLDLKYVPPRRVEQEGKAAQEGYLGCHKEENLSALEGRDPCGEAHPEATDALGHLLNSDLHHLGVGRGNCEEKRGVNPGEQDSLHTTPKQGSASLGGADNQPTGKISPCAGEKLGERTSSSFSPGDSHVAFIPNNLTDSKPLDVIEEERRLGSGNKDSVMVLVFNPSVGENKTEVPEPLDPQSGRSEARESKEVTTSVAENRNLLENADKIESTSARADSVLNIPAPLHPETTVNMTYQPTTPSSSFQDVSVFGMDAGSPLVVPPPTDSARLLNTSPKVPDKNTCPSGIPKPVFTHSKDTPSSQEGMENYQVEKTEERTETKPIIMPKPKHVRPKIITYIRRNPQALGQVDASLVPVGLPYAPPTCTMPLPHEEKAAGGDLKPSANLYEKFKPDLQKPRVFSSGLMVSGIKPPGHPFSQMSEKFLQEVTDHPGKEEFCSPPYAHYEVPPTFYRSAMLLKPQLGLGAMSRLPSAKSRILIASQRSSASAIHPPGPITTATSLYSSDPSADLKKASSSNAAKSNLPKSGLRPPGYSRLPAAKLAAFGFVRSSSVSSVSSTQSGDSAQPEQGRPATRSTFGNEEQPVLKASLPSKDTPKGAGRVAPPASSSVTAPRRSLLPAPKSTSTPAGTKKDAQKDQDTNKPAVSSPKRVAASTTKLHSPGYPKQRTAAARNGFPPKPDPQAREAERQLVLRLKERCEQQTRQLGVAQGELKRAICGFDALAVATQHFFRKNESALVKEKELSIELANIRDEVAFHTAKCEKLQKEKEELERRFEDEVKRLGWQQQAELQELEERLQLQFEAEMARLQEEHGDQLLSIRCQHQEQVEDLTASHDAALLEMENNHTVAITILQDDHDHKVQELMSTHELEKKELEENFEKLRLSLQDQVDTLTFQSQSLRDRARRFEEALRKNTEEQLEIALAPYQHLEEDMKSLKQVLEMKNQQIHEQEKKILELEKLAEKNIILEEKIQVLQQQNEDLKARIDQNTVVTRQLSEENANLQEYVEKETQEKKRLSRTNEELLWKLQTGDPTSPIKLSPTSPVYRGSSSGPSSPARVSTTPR
B2: Late cornified envelope protein 1B (Homo sapiens), Q5T7P3 (parent)
chain: MSCQQNQQQCQPPPKCIPKCPPKCLTPRCPPKCPPKCPPVSSCCSVSSGGCCGSSSGGSCGSSSGGCCSSGGGGCCLSHHRRRRSHCHRPQSSGCCSQPSGGSSCCGGGSGQHSGGCC
partner: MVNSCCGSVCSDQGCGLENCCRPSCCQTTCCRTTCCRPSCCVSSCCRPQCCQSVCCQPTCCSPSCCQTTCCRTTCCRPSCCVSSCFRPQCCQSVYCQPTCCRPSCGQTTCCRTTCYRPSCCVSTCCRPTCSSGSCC
B3: Abl interactor 2 (Homo sapiens), Q9NYB9 (parent)
chain: MAELQMLLEEEIPGGRRALFDSYTNLERVADYCENNYIQSADKQRALEETKAYTTQSLASVAYLINTLANNVLQMLDIQASQLRRMESSINHISQTVDIHKEKVARREIGILTTNKNTSRTHKIIAPANLERPVRYIRKPIDYTILDDIGHGVKWLLRFKVSTQNMKMGGLPRTTPPTQKPPSPPMSGKGTLGRHSPYRTLEPVRPPVVPNDYVPSPTRNMAPSQQSPVRTASVNQRNRTYSSSGSSGGSHPSSRSSSRENSGSGSVGVPIAVPTPSPPSVFPAPAGSAGTPPLPATSASAPAPLVPATVPSSTAPNAAAGGAPNLADGFTSPTPPVVSSTPPTGHPVQFYSMNRPASRHTPPTIGGSLPYRRPPSITSQTSLQNQMNGGPFYSQNPVSDTPPPPPPVEEPVFDESPPPPPPPEDYEEEEAAVVEYSDPYAEEDPPWAPRSYLEKVVAIYDYTKDKEDELSFQEGAIIYVIKKNDDGWYEGVMNGVTGLFPGNYVESIMHYSE
partner: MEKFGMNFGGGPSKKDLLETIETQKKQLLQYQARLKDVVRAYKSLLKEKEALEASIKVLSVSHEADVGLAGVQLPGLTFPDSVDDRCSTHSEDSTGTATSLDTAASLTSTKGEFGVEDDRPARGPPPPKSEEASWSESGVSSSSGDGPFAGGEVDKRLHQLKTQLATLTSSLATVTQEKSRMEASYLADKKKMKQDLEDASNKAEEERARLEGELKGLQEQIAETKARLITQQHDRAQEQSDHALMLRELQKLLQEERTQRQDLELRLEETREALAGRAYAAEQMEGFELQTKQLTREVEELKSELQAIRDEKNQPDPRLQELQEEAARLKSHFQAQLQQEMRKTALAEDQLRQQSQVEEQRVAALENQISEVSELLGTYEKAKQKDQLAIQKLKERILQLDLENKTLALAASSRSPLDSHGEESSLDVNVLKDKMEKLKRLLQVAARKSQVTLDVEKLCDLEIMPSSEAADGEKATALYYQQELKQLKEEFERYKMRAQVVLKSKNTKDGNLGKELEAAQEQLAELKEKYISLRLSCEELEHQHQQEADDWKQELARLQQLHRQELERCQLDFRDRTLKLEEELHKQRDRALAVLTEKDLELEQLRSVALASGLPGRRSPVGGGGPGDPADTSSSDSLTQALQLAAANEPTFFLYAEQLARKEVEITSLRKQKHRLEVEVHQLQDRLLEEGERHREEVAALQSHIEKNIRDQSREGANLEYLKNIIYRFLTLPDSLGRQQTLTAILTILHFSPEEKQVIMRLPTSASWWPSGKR
B4: E3 ubiquitin-protein ligase LNX (Homo sapiens), Q8TBB1 (parent)
chain: MNQPESANDPEPLCAVCGQAHSLEENHFYSYPEEVDDDLICHICLQALLDPLDTPCGHTYCTLCLTNFLVEKDFCPMDRKPLVLQHCKKSSILVNKLLNKLLVTCPFREHCTQVLQRCDLEHHFQTSCKGASHYGLTKDRKRRSQDGCPDGCASLTATAPSPEVSAAATISLMTDEPGLDNPAYVSSAEDGQPAISPVDSGRSNRTRARPFERSTIRSRSFKKINRALSVLRRTKSGSAVANHADQGRENSENTTAPEVFPRLYHLIPDGEITSIKINRVDPSESLSIRLVGGSETPLVHIIIQHIYRDGVIARDGRLLPGDIILKVNGMDISNVPHNYAVRLLRQPCQVLWLTVMREQKFRSRNNGQAPDAYRPRDDSFHVILNKSSPEEQLGIKLVRKVDEPGVFIFNVLDGGVAYRHGQLEENDRVLAINGHDLRYGSPESAAHLIQASERRVHLVVSRQVRQRSPDIFQEAGWNSNGSWSPGPGERSNTPKPLHPTITCHEKVVNIQKDPGESLGMTVAGGASHREWDLPIYVISVEPGGVISRDGRIKTGDILLNVDGVELTEVSRSEAVALLKRTSSSIVLKALEVKEYEPQEDCSSPAALDSNHNMAPPSDWSPSWVMWLELPRCLYNCKDIVLRRNTAGSLGFCIVGGYEEYNGNKPFFIKSIVEGTPAYNDGRIRCGDILLAVNGRSTSGMIHACLARLLKELKGRITLTIVSWPGTFL
partner: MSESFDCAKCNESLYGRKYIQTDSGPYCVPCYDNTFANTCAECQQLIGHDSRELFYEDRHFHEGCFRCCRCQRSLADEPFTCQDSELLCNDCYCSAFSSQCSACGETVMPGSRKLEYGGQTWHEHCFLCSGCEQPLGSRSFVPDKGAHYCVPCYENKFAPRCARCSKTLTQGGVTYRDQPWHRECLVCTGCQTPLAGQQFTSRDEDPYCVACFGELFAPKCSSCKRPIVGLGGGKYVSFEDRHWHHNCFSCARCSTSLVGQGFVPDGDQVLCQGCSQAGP
B5: Abl interactor 2 (Homo sapiens), Q9NYB9 (parent)
chain: B3 chain
partner: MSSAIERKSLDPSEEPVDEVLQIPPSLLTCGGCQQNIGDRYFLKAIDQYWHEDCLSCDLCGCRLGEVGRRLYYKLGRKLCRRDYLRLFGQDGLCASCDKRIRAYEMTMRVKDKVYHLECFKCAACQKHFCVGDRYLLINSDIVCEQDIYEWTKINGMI

Variants of: B1
Conditions: with mtus2_human MTUS2, Q5JR59
With G669R the “effect of a mutation on the interaction” value was “with no effect”.

Variants of: B2
Conditions: with kra42_human KRTAP4-2, Q9BYR5
In the case of C16Y, the “effect of a mutation on the interaction” value is reported as “with no effect”.

Variants of: B3
Conditions: with gcc1_human GCC1, Q96CN9
For E202K, the “effect of a mutation on the interaction” value was “with no effect”.

Variants of: B4
Conditions: with fhl3_human FHL3, Q13643
E295K was tested, and the “effect of a mutation on the interaction” value was “disrupting interaction strength”.

Variants of: B5
Conditions: with rbtn2_human LMO2, P25791
With E202K the “effect of a mutation on the interaction” value was “with no effect”.
